Positions count from the first letter of the chain named.
B1: RDE1: RNA destabilizing element: endogenous 3′-UTR of IFNg (SEQ ID NO: 30), controlling luciferase or IL-12 in anti-CD19 CAR CD4+ T-cells (nucleic acid, listed as Homo sapiens)
DNA: TGGTTGTCCTGCCTGCAATATTTGAATTTTAAATCTAAATCTATTTATTAATATTTAACATTATTTATATGGGGAATATATTTTTAGACTCATCAATCAAATAAGTATTTATAATAGCAACTTTTGTGTAATGAAAATGAATATCTATTAATATATGTATTATTTATAATTCCTATATCCTGTGACTGTCTCACTTAATCCTTTGTTTTCTGACTAATTAGGCAAGGCTATGTGATTACAAGGCTTTATCTCAGGGGCCAACTAGGCAGCCAACCTAAGCAAGATCCCATGGGTTGTGTGTTTATTTCACTTGATGATACAATGAACACTTATAAGTGAAGTGATACTATCCAGTTACTGCCGGTTTGAAAATATGCCTGCAATCTGAGCCAGTGCTTTAATGGCATGTCAGACAGAACTTGAATGTGTCAGGTGACCCTGATGAAAACATAGCATCTCAGGAGATTTCATGCCTGGTGCTTCCAAATATTGTTGACAACTGTGACTGTACCCAAATGGAAAGTAACTCATTTGTTAAAATTATCAATATCTAATATATATGAATAAAGTGTAAGTTCACAACTA
B2: RDE3: 3′-UTR of IL-2 modified to remove the mir186 sites (CTT replaced with GAA, SEQ ID NO: 29) (nucleic acid, listed as Homo sapiens)
DNA: TAATTAAGTGCTTCCCACTTAAAACATATCAGGCCTTCTATTTATTTAAATATTTAAATTTTATATTTATTGTTGAATGTATGGTTTGCTACCTATTGTAACTATTATTCTTAATCTTAAAACTATAAATATGGATCTTTTATGATTGAATTTGTAAGCCCTAGGGGCTCTAAAATGGTTTCACTTATTTATCCCAAAATATTTATTATTATGTTGAATGTTAAATATAGTATCTATGTAGATTGGTTAGTAAAACTATTTAATAAATTTGATAAATATAAA
B3: RDE2: RNA destabilizing element: endogenous 3′-UTR of IL-2 (SEQ ID NO: 28), controlling luciferase in anti-CD19 CAR CD4+ T-cells (nucleic acid, listed as Homo sapiens)
DNA: B2 DNA with G148C, A149T, A150T

Columns and labels:
Type in all cases: cell-based
CD4+ T-cells [1] = test: Luciferase bioluminescence of transduced T-cells, resting versus stimulated; conditions: for bioluminescence as compared to T-cells at resting: Raji target cells (activate CAR), FIG. 17; for amount of bioluminescence, comparison among RDE constructs: with either promoter (MinP or NFAT)
From the text: The anti-CD19 CAR cassette and the insert with the luciferase-RDE1 are transcribed in opposite directions, and the control regions for each are located in between the two insert/cassettes. The control region for the Luciferase-RDE1 insert and Luciferase-3′-UTR were either a MinP promoter or an NFAT promoter having the sequences of:
The control region of the anti-CD19 CAR cassette was the MND promoter. CD4+ T-cells were transduced with the bicistronic construct.
The transduced T cells were allowed to return to resting state, and then were tested after stimulation as follows. For the ‘no stimulation’ set, transduced T-cells were incubated for 24 h alone in medium. For the ‘Raji co-culture’ set and the “CD3/CD28 Beads” set, CD19+ Raji B cells or anti-CD3/anti-CD28 beads were incubated with the transduced T cells for 24 h. At 24 h, the T cells were stained for CD25 and CD69, which are activation markers, and subject to flow cytometry to measure these markers and luciferase expression in the T cells.
Combinations of these inserts/cassettes shown in FIG. 17 were placed in the similar lenti virus constructs. The anti-CD19 CAR cassette and the insert with the luciferase-RDE are transcribed in opposite directions, and the control regions for each are located in between the two insert/cassettes. The control region for the Luciferase-RDE insert and Luciferase-3′-UTR were either a MinP promoter or an NFAT promoter. The control region of the anti-CD19 CAR cassette was the MND promoter, and CD4+ T-cells were transduced with the bicistronic construct.
(§1) The transduced T cells were allowed to return to resting state, and then were tested after stimulation as follows. For the ‘no stimulation’ set, transduced T-cells were incubated for 24 h alone in medium. For the ‘Raji co-culture’ set CD19+ Raji B cells were incubated with the transduced T cells for 24 h. At 24 h, the T cells were stained for CD25 and CD69, which are activation markers, and subject to flow cytometry to measure these markers and luciferase expression in the T cells.

CD4+ T-cells [2] = test: IL-12 expression of transduced T cells by ELISA, resting versus Raji co-culture
From the text: The anti-CD19 CAR cassette and the insert with the IL-12-RDE1 are transcribed in opposite directions, and the control regions for each are located in between the two insert/cassettes. The control region for the IL-12-RDE1 insert and IL-12 3′-UTR were either a minP promoter or an NFAT promoter. The control region of the anti-CD19 CAR cassette was the MND promoter. CD4+ T-cells were transduced with the bicistronic construct.
as §1, with “co-culture’ set,” for “co-culture’ set”, “these markers. IL-12” for “these markers and luciferase”, “T cells was measured by ELISA.” for “T cells.”

[3] = Expression from constructs with 3′-UTR RDEs after removal of microRNA binding sites; conditions: MIR186 micro-RNA sites removed from the 3′-UTR of IL-2
From the text: The AU-rich element from the 3′-UTR of IL-2 has mir-181 and mir 186 microRNA binding sites. Different combinations of the microRNA sites were removed from the 3′-UTR of IL-2. When the MIR186 micro-RNA sites were removed from the 3′-UTR of IL-2 the dynamic range of expression from constructs with this UTR increased 50 fold. The modified IL-2, 3′-UTR replaces CTT in the sequence with GAA and is shown below (the new GAA is underlined in the sequence):
Different combinations of the micro-RNA sites were removed from the 3′UTR of IFNg and tested for increased expression. When the mir125 micro-RNA sites were removed from the 3′-UTR of IFN-γ the expression rate from constructs with this UTR is increased.

Molecule | increase in bioluminescence with CAR stimulation (CD4+ T-cells [1]; MinP promoter) | increase in bioluminescence with CAR stimulation (CD4+ T-cells [1]; NFAT promoter) | on-off response from CAR stimulation versus TCR stimulation (CD4+ T-cells [1]; NFAT promoter, luciferase) | bioluminescence as compared to T-cells at resting (CD4+ T-cells [1]) | amount of bioluminescence compared with luciferase not controlled by an RDE (3′-UTR) (CD4+ T-cells [1]; all conditions, same promoter) | on-off response with NFAT promoter compared with MinP promoter and the corresponding RDE (CD4+ T-cells [1]; luciferase, Raji co-culture) | amount of bioluminescence, comparison among RDE constructs (CD4+ T-cells [1]) | change in IL-12 expression from resting to CAR stimulation (CD4+ T-cells [2]; MinP promoter) | change in IL-12 expression from resting to CAR stimulation (CD4+ T-cells [2]; NFAT promoter) | increase of dynamic range of expression from constructs with this UTR [3]
B1 | 4.1 fold | 8.5 fold | larger on-off response | increase in bioluminescence | lower amounts of bioluminescence | larger on-off response | lowest amount of bioluminescence | 6.3 fold | 168 fold | –
B2 | 1.4 fold | 1.3 fold | – | increase in bioluminescence | – | – | highest amount of bioluminescence | – | – | 50 fold
B3 | 1.8 fold | 3.1 fold | – | increase in bioluminescence | – | – | between RDE3 and RDE1 | – | – | –
